Publication PMC7876548, “Methylation of the D2 dopamine receptor affects binding with the human regulatory proteins Par-4 and Calmodulin” (microPublication Biology, 2021)
Square brackets hold non-standard residues; d marks the D form. Ends that are not written are not given here. * marks the point of attachment. K(5-FAM) = lysine labeled with 5-carboxyfluorescein (5-FAM), C-terminal, O=C(NCCCC[C@H](N*)C(=O)O)c1ccc2c(c1)C(=O)OC21c2ccc(O)cc2Oc2cc(O)ccc21; Arg(Me2s) = CN=C(NC)NCCC[C@H](N)C(=O)O

Biological target: T1, human calmodulin (human, UniProt P0DP23 1-149)
T1 construct: Calmodulin, human; in pET-17b; Purification adapted from McCluskey et al. 2007; also called CaM; His-Calmodulin; source: Rosetta E. coli, purified (Ni-NTA, Phenyl-sepharose)
Assay: fluorescence polarisation; anisotropy; fluorescently labelled D2 peptide at 0.025 µM final, Par-4 or CaM added from 10x stocks of 0-20 µM; 200 mM NaCl, 200 µM CaCl2, 50 mM Tris pH 7.5; room temperature, ten minutes; average of four trials
Conditions: both partners purified

Kd [nM]	Binder
57.5	VYIKIYIVLRRRRKRVNTKRSSRAFRAHLRAPLKGN-{K(5-FAM)} (D2 dopamine receptor, human, amino acids 208-243 of the third intracellular loop; The C-terminal fluorophore is carried on an added lysine (K-5-FAM) after residue 243; source: synthetic peptide (21st Century Biochemicals); not shown: FLAG, N-terminal, kept)
136	VYIKIYIVL[Arg(Me2s)]R[Arg(Me2s)]RKRVNTKRSSRAFRAHLRAPLKGN-{K(5-FAM)} (D2 dopamine receptor, human, amino acids 208-243 of the third intracellular loop; Same peptide as m1 but with symmetric dimethylarginine at 217 and 219; The C-terminal fluorophore is carried on an added lysine (K-5-FAM); source: synthetic peptide (21st Century Biochemicals); not shown: FLAG, N-terminal, kept)
